According to paper PMC9321335, “Palmitic Acid-Conjugated Radiopharmaceutical for Integrin αvβ3-Targeted Radionuclide Therapy” (Pharmaceutics, 2022):
Read-outs that look alike come from different tables or passages of the source.

Experiments:
[1] = reportedly; cited from earlier work
Source text: Albumin makes up approximately 55–60% of serum proteins, and its biological half-life is reportedly 19 days, which makes it possible to leverage the long circulation half-life of albumin to produce long-acting therapeutics.

[2] = set-up: species or system KM mice; conditions: mouse, in vivo, iv
Description: (§1) Female KM mice were randomly divided into three groups (n = 5). […] Blood samples obtained from the canthus vein were collected at different time points post injection (p.i.), weighed, and evaluated using a γ-counter. The results are presented as the percentage injected activity per gram (%IA/g). Nonlinear regression (curve fit) followed by two phase decay was performed using GraphPad Prism version 9.0.0 for Windows, GraphPad Software, San Diego, CA, USA, www.graphpad.com (accessed on 22 May 2022). And then the half-lives values were calculated and determined.

[3] = test system: MC38 tumor-bearing mice; assay: in vivo; conditions: mouse
Description: (§2) Mice bearing MC38 xenografts were randomly divided into 10 groups (n = 4). The mice in five groups were administered 0.74 MBq/20 µCi of ^177Lu-Palm-3PRGD2 and sacrificed at 1, 4, 12, 24, and 72 h p.i. The mice on one group was injected with 0.74 MBq/20 µCi of ^177Lu-Palm-3PRGD2 and 500 μg (242 nmol) 3PRGD2 as a blocking agent and sacrificed at 1 h p.i. […] Tumors and major organs were harvested, weighed and measured for radioactivity using a γ-counter. The organ uptake was calculated as the percentage injected activity per gram (%IA/g). The effective absorbed dose in humans estimated from mouse biodistribution data by using a dedicated software (OLINDA 1.0).

[4] = set-up: species or system C57BL/6 mice; conditions: mouse, in vivo
Description: as §1, with “determined. Blood clearance studies were performed in normal KM mice. […] Blood clearance studies were also performed in C57BL/6 mice.” for “determined.”

[5] = in vivo; conditions: C57BL/6, mouse, 0.74 MBq, total radioactivity
Description: as §2

[6] = cited from earlier work
Source text: This may be caused by several factors: first, palmitic acid can reversibly bind to albumin to prolong the blood retention time and reduce the elimination of peptides; second, ^177Lu-palm-3PRGD2 is amphiphilic and may self-assemble to form tiny nanoparticles (possibly nanospheres or nanofibers) with larger molecular sizes, resulting in lo ...

[7] = physchem; assay type: physicochemical
Description: Briefly, the radiopharmaceuticals were prepared and purified with Sep-Pak-C18 cartridges and then dissolved in a mixed solution of 5 mL n-octanol and 5 mL PBS. After vortexing for 1 h, the mixture was centrifuged at 10,000 rpm for 10 min. Samples (100 μL, n = 4) from the n-octanol and PBS components were collected and counted using a γ-counter. The […] were calculated as the logarithm of the n-octanol/PBS ratio.

[8] = Tumor-to-tissue ratio, Intestine

Albumin
Biological half-life [1]: 19 days

CCCCCCCCCCCCCCCC(=O)N[C@@H](CCC(=O)NCCCC[C@H](NC(=O)CN1CCN(CC(=O)O)CCN(CC(=O)O)CCN(CC(=O)O)CC1)C(=O)O)C(=O)O [^177Lu-Palm, [^177Lu]Lu-DOTA-Palm, metal not drawn]
Half-Life (T1/2α) [2]: 3.33 min
Half-Life (T1/2β) [2]: 29.82 min
Tumor-to-tissue ratio, Brain [3]: 14.69

N=C(N)NCCC[C@@H]1NC(=O)[C@H](CCCCNC(=O)CCOCCOCCOCCOCCNC(=O)CC[C@H](NC(=O)CCOCCOCCOCCOCCNC(=O)CN2CCN(CC(=O)O)CCN(CC(=O)O)CCN(CC(=O)O)CC2)C(=O)NCCOCCOCCOCCOCCC(=O)NCCCC[C@@H]2NC(=O)[C@@H](Cc3ccccc3)NC(=O)[C@H](CC(=O)O)NC(=O)CNC(=O)[C@H](CCCNC(=N)N)NC2=O)NC(=O)[C@@H](Cc2ccccc2)NC(=O)[C@H](CC(=O)O)NC(=O)CNC1=O [^177Lu-3PRGD2, [^177Lu]Lu-DOTA-3PRGD2, metal not drawn]
Half-Life (T1/2α) [4]: 1.06 min
Half-Life (T1/2β) [4]: 14.54 min
Half-Life (T1/2α) [2]: 1.94 min
Half-Life (T1/2β) [2]: 11.81 min
tissue uptake at 4 h ([5]; Blood uptake): 0.42 ± 0.26 %ID/g
tissue uptake at 12 h ([5]; Blood uptake): 0.32 %ID/g
tissue uptake at 4 h ([5]; Bone uptake): 1.41 %ID/g
tissue uptake at 12 h ([5]; Bone uptake): 1.46 %ID/g
tissue uptake at 4 h ([5]; Brain uptake): 0.09 %ID/g
tissue uptake at 12 h ([5]; Brain uptake): 0.11 %ID/g
tissue uptake at 4 h ([5]; Heart uptake): 0.75 %ID/g
tissue uptake at 12 h ([5]; Heart uptake): 0.63 %ID/g
tissue uptake at 4 h ([5]; Intestine uptake): 9.85 %ID/g
tissue uptake at 12 h ([5]; Intestine uptake): 7.97 %ID/g
tissue uptake at 12 h ([5]; Kidney uptake): 4.48 %ID/g
tissue uptake at 4 h ([5]; Liver uptake): 2.95 %ID/g
tissue uptake at 12 h ([5]; Liver uptake): 1.93 %ID/g
tissue uptake at 4 h ([5]; Lung uptake): 1.73 %ID/g
tissue uptake at 12 h ([5]; Lung uptake): 1.46 %ID/g
tissue uptake at 4 h ([5]; Muscle uptake): 0.52 %ID/g
tissue uptake at 12 h ([5]; Muscle uptake): 0.64 %ID/g
tissue uptake at 4 h ([5]; Spleen uptake): 2.65 %ID/g
tissue uptake at 12 h ([5]; Spleen uptake): 1.89 %ID/g
tissue uptake at 4 h ([5]; Stomach uptake): 2.96 %ID/g
tissue uptake at 12 h ([5]; Stomach uptake): 2.39 %ID/g
tissue uptake at 4 h ([5]; Tumor uptake): 6.22 %ID/g
tissue uptake at 12 h ([5]; Tumor uptake): 4.11 %ID/g
tissue to tissue ratio at 4 h ([5]; Tumor-to-tissue ratio, Blood): 20.3
tissue to tissue ratio at 12 h ([5]; Tumor-to-tissue ratio, Blood): 14.2
tissue to tissue ratio at 4 h ([5]; Tumor-to-tissue ratio, Bone): 4.41
tissue to tissue ratio at 12 h ([5]; Tumor-to-tissue ratio, Bone): 2.82
tissue to tissue ratio at 4 h ([5]; Tumor-to-tissue ratio, Brain): 68.7
tissue to tissue ratio at 12 h ([5]; Tumor-to-tissue ratio, Brain): 39.9
tissue to tissue ratio at 4 h ([5]; Tumor-to-tissue ratio, Heart): 8.31
tissue to tissue ratio at 12 h ([5]; Tumor-to-tissue ratio, Heart): 6.53
tissue to tissue ratio at 4 h [5, 8]: 0.66
tissue to tissue ratio at 12 h [5, 8]: 0.52
tissue to tissue ratio at 4 h ([5]; Tumor-to-tissue ratio, Liver): 2.11
tissue to tissue ratio at 12 h ([5]; Tumor-to-tissue ratio, Liver): 2.13
tissue to tissue ratio at 4 h ([5]; Tumor-to-tissue ratio, Lung): 3.6
tissue to tissue ratio at 12 h ([5]; Tumor-to-tissue ratio, Lung): 2.84
tissue to tissue ratio at 4 h ([5]; Tumor-to-tissue ratio, Muscle): 12
tissue to tissue ratio at 12 h ([5]; Tumor-to-tissue ratio, Muscle): 6.6
tissue to tissue ratio at 4 h ([5]; Tumor-to-tissue ratio, Spleen): 2.36
tissue to tissue ratio at 12 h ([5]; Tumor-to-tissue ratio, Spleen): 2.22
tissue to tissue ratio at 4 h ([5]; Tumor-to-tissue ratio, Stomach): 2.1
tissue to tissue ratio at 12 h ([5]; Tumor-to-tissue ratio, Stomach): 1.72
tissue to tissue ratio at 4 h ([5]; in vivo): 1.27
tissue to tissue ratio at 12 h ([5]; in vivo): 0.92
Effective absorbed dose [6]: 1.35 × 10^−2 mSv/MBq
logD [7]: -4.05 ± 0.14
